# T1: Recombinant Mouse B7-1/CD80 Fc Chimera His-tag Protein, CF (R&D Systems, catalog number 740-B1) (mouse, UniProt Q00609 38-245)
# T1 construct: Bought reagent; everywhere else it is mouse; also called mouse CD80 recombinant protein; bait; Fc part of the bought chimera not given; His-tag
# T1 sequence (looked up): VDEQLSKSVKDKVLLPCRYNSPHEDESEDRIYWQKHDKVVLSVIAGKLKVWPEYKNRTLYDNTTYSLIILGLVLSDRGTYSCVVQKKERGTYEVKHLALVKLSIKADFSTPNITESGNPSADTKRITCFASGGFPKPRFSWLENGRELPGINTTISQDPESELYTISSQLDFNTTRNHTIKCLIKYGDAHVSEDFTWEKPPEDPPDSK
# B1: first peptide (VLMGDPSVWWTY) (peptide)
# peptide: VLMGDPSVWWTY
# notes: In the ELISA screening the peptide stood on an M13 phage clone from the PhD-12 Phage Display Peptide Library (New England Biolabs); also called novel peptide
# B2: second peptide (YLIYEEEPLNSM) (peptide)
# peptide: YLIYEEEPLNSM
# notes: In the ELISA screening the peptide stood on an M13 phage clone from the PhD-12 Phage Display Peptide Library
# Legend:
# [1] = target: T2, mouse CD80 recombinant protein (Mus musculus, UniProt Q00609); experiment: Phage display screening and enzyme-linked immunosorbent assay screening for CD80 binding; conditions: peptide derived from ELISA-positive phage colonies
# T2 construct: Fc (Fc chimera); His-tag; purchased R&D Systems 740-B1
# Procedure: In ‘Phage Display Screening”, biopanning is applied via phage display technology. First, the G protein magnetic beads (product name: Dynabeads™ Protein G; manufacturer: Invitrogen) are added to mix with the phage peptide library (product name: PhD-12 Phage Display Peptide Library; manufacturer: New England Biolabs), thus the mixture is incubated for 1 hour at 4° C. ambient conditions. Then, a magnet is used to remove the G protein magnetic beads to exclude phages bound to the G protein magnetic beads in the phage peptide library, thereby obtaining a purified phage peptide library. Continuously, the bait carrier is added to the purified phage peptide library and incubated overnight at 4° C. ambient conditions. The bait carrier is magnetic beads immobilized with mouse CD80 recombinant protein (product name: Recombinant Mouse B7-1/CD80 Fc Chimera His-tag Protein, CF; manufacturer: R&D Systems; catalog number: 740-B1). Therefore, the phages in the purified phage peptide library that bind to the mouse CD80 recombinant protein will be bound to the bait carrier, and then the bait carrier will be separated using the magnet. Then the bait carrier is rinsed with cleaning solution to eliminate phages with weak binding force. The cleaning solution is phosphate buffered saline (PBS) containing 0.1% (v/v) polysorbate-20 (Tween 20). […]
# [2] = target: T1, Recombinant Mouse B7-1/CD80 Fc Chimera …; experiment: phage ELISA on plate-coated mouse CD80 recombinant protein, anti-M13 HRP, absorbance at 450 nm
# Description: The PEG8000/NaCl contains 20% (v/v) PEG8000 (product name: Poly (ethylene glycol); manufacturer: Sigma-Aldrich; Cat. No.: P5413-1KG) and 2.5M NaCl (product name: Sodium chloride; manufacturer: Honeywell fluka; Cat. No.: 31434S-1KG). The above steps are repeated for five rounds in total. In the fourth and fifth rounds, phage clones will be randomly selected for culture, and used in the subsequent enzyme-linked immunosorbent assay (ELISA) to screen out desired phages.
# In the “Enzyme Combined Immunosorbent Assay Screening”, the mouse CD80 recombinant protein is first fixed in the wells of a microplate (product name: Clear C-Shaped Immuno Nonsterile 96-Well Plates; manufacturer: Thermo Fisher Scientific; Cat. No.: 446612), and then the phage clones randomly selected in the fourth and fifth rounds of the “Phage Display Screening” are mixed with the diluent at a volume ratio of 1:2 to obtain a phage dilution, which is a phosphate buffered saline comprising 3% (v/v) bovine serum albumin (BSA) and 0.1% (v/v) polysorbate-20. […] Constantly, a microplate reader is adopted to measure the absorbance at 450 nm to confirm whether the phages in each grid of the microplate are still bound to the mouse CD80 recombinant protein in the microplate. […]
# T2 sequence (Q00609 with tags, fused parts or gaps limits assumed): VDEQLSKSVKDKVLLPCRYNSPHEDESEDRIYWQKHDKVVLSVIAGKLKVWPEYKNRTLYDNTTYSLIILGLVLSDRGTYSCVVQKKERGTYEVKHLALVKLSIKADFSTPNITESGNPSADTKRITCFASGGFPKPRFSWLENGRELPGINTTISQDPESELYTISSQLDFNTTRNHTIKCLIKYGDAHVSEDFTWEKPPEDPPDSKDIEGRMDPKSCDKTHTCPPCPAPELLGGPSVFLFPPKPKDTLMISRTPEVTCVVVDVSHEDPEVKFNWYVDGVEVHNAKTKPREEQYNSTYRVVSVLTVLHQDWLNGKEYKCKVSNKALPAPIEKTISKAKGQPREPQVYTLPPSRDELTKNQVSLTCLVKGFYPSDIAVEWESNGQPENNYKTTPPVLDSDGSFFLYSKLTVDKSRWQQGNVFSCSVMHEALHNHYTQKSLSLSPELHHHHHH
molecule,measurement,setting,value
"VLMGDPSVWWTY [first peptide, peptide from phage display screening against mouse CD80 recombinant protein]",binding to CD80 protein,[1],can indeed bind to the CD80 protein
B1,binding result,[2],binds
B2,binding result,[2],binds
